Earlier results in patent US12129294B2, “Methods of treatment of diseases in which IL-13 activity is detrimental using anti-IL-13 antibodies” (AbbVie Inc., priority 2016, dated 2024).

Test system: eosinophilic esophagitis (EoE)
Settings: QAX576 study, N = 17, cited from earlier work

B1: QAX576: anti-IL-13 antibody dectrekumab (QAX-576), comparator study in Table 6 (antibody, chains of the INN, looked up, V domains shown)
VH: EVQLVESGGGVVQPGRSLRLSCAASGFTFSSYGMHWVRQAPGKGLEWVAIIWYDGSNKYYADSVKGRFTISRDNSKNTLYLQMNSLRAEDTAVYYCARLWFGDLDAFDIWGQGTMVTVSS
VL: EIVLTQSPATLSLSPGERAILSCRAGQSVSSYLVWYQQKPGQAPRLLIYDASNRATGIPARFSGSGSGTDFTLTISSLEPEDFAVYYCQQRSSWPPVYTFGQGTKLEIK
baseline
  EEOC Mean BL: 35.4
  EEOC Peak BL: 88.2
Post treatment
  EEOC Mean post: 14.6
